How the values were obtained:
[1] = target: his-tagged ubiquitin-extension protein UBQ1
[2] = target: his-tagged polyubiquitin UBQ10 (hexameric polyubiquitin), Q8H159
[3] = target: multiubiquitin chain linked by iso-peptide

his-tagged polyubiquitin UBQ10 (hexameric polyubiquitin), Q8H159, sequence (Q8H159 whole entry, looked up): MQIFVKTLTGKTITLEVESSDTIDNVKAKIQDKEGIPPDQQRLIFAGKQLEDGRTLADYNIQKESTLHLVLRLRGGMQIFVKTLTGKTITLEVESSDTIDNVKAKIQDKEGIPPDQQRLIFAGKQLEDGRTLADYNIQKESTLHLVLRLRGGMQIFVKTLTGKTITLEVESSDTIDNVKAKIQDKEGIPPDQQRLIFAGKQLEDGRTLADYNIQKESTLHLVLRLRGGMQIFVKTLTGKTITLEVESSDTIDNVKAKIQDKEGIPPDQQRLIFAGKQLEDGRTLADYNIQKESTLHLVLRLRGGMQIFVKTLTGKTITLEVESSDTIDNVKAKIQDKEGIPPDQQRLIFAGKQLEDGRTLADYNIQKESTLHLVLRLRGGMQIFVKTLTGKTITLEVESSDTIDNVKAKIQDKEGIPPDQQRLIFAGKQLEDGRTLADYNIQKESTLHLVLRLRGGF

| Protein | in vitro DUB activity assay (co-expression in E. coli, immunoblot with anti-ubiquitin antibody) [1] | in vitro DUB activity assay (co-expression in E. coli, immunoblot with anti-ubiquitin antibody) [2] | in vitro DUB activity assay (data not shown) [3] |
| --- | --- | --- | --- |
| GST-UBP15 (protein) MLEPRGADIPILFLVLVVLPVVAYILLGKWSNISEKRVRANLLAQMAAEEALRAETVVNADRGVRFESVATENRAQRTRTKTVSAGGGAVRAEFDAGARETVAEQRSDSVTATCGVTVVAPVNNNELHVCARCFGPAKTRCSRCKSVRYCSGKCQIIHWRVAHKDECVPVESCSSSSERVSFEKDSVLYDHGMDSTMYSNNTTQAAKGKTSKSSVDFASLGISQNDITPQINTQGRKSVGKQHSSKANRESCRRDSATVFDSSDEAASAGGDNKTSHIKHKSRGNSYAAETNPRRHSVDSSAVQMNGQSFVSGMQESHKHENNLGVRSSFGCPNTQYPSNGTRTATLPRTGINKSGEQSCTETSKKGQVAAVSKTVRSKDTGISEESNGISSTMGIMKMMGLRNSTKHDDRYKNLKMLFPYEEFLKFFQCEVFDLSPRGLVNCGNSCYANAVLQSLTCTKPLVAYLLRRSHSRSCSGKDWCLMCELEQHVMMLRESGGPLSASRILSHMRSINCQIGDGSQEDAHEFLRLLVASMQSICLERLGGETKVDPRLQETTLVQHMFGGRLRSKVKCLRCDHESERYENIMDLTLEIYGWVESLQDALTQFTRPEDLDGENMYRCSRCAGYVRARKELSIHEAPNILTIVLKRFQEGRYGKINKCISFPEMLDMIPFMTRTGDVPPLYMLYAVIVHLDTLNASFSGHYISYVKDLRGNWYRIDDSEIHPVPMTQVMSEGAYMLFYMRSYPRPQRGEHNGKAPVHHSQPRNEMKEQRKPVNRFKPRADHKNTESSSSEWSLFTSSDEASFTTESTRDSFSTIDYTDVCHVVDSSSPFAIFNNVYHNVEPSPHNTVACRMFSGTKPETRYFVEQETNHNNTVVLDATPSLYPIPAPYPPHDYYDQSMYVNYETNPEFNNGQDQDRTYSYW | UBP15 can cleave substrate UBQ1 (ubiquitin-extension protein) | UBP15 can cleave substrate UBQ10 (hexameric polyubiquitin) | UBP15 can only cleave a-linked peptide (polyubiquitin and ubiquitin-extension gene) (FIG. 5A), not c-linked isopeptide (multiubiquitin chain linked by iso-peptide) (data not shown) |
| GST-UBP15C447S (protein) MLEPRGADIPILFLVLVVLPVVAYILLGKWSNISEKRVRANLLAQMAAEEALRAETVVNADRGVRFESVATENRAQRTRTKTVSAGGGAVRAEFDAGARETVAEQRSDSVTATCGVTVVAPVNNNELHVCARCFGPAKTRCSRCKSVRYCSGKCQIIHWRVAHKDECVPVESCSSSSERVSFEKDSVLYDHGMDSTMYSNNTTQAAKGKTSKSSVDFASLGISQNDITPQINTQGRKSVGKQHSSKANRESCRRDSATVFDSSDEAASAGGDNKTSHIKHKSRGNSYAAETNPRRHSVDSSAVQMNGQSFVSGMQESHKHENNLGVRSSFGCPNTQYPSNGTRTATLPRTGINKSGEQSCTETSKKGQVAAVSKTVRSKDTGISEESNGISSTMGIMKMMGLRNSTKHDDRYKNLKMLFPYEEFLKFFQCEVFDLSPRGLVNCGNSSYANAVLQSLTCTKPLVAYLLRRSHSRSCSGKDWCLMCELEQHVMMLRESGGPLSASRILSHMRSINCQIGDGSQEDAHEFLRLLVASMQSICLERLGGETKVDPRLQETTLVQHMFGGRLRSKVKCLRCDHESERYENIMDLTLEIYGWVESLQDALTQFTRPEDLDGENMYRCSRCAGYVRARKELSIHEAPNILTIVLKRFQEGRYGKINKCISFPEMLDMIPFMTRTGDVPPLYMLYAVIVHLDTLNASFSGHYISYVKDLRGNWYRIDDSEIHPVPMTQVMSEGAYMLFYMRSYPRPQRGEHNGKAPVHHSQPRNEMKEQRKPVNRFKPRADHKNTESSSSEWSLFTSSDEASFTTESTRDSFSTIDYTDVCHVVDSSSPFAIFNNVYHNVEPSPHNTVACRMFSGTKPETRYFVEQETNHNNTVVLDATPSLYPIPAPYPPHDYYDQSMYVNYETNPEFNNGQDQDRTYSYW | Cysteine^447 is essential for this DUB activity | Cysteine^447 is essential for this DUB activity | – |
| GST-UBP15C447A (protein) MLEPRGADIPILFLVLVVLPVVAYILLGKWSNISEKRVRANLLAQMAAEEALRAETVVNADRGVRFESVATENRAQRTRTKTVSAGGGAVRAEFDAGARETVAEQRSDSVTATCGVTVVAPVNNNELHVCARCFGPAKTRCSRCKSVRYCSGKCQIIHWRVAHKDECVPVESCSSSSERVSFEKDSVLYDHGMDSTMYSNNTTQAAKGKTSKSSVDFASLGISQNDITPQINTQGRKSVGKQHSSKANRESCRRDSATVFDSSDEAASAGGDNKTSHIKHKSRGNSYAAETNPRRHSVDSSAVQMNGQSFVSGMQESHKHENNLGVRSSFGCPNTQYPSNGTRTATLPRTGINKSGEQSCTETSKKGQVAAVSKTVRSKDTGISEESNGISSTMGIMKMMGLRNSTKHDDRYKNLKMLFPYEEFLKFFQCEVFDLSPRGLVNCGNSAYANAVLQSLTCTKPLVAYLLRRSHSRSCSGKDWCLMCELEQHVMMLRESGGPLSASRILSHMRSINCQIGDGSQEDAHEFLRLLVASMQSICLERLGGETKVDPRLQETTLVQHMFGGRLRSKVKCLRCDHESERYENIMDLTLEIYGWVESLQDALTQFTRPEDLDGENMYRCSRCAGYVRARKELSIHEAPNILTIVLKRFQEGRYGKINKCISFPEMLDMIPFMTRTGDVPPLYMLYAVIVHLDTLNASFSGHYISYVKDLRGNWYRIDDSEIHPVPMTQVMSEGAYMLFYMRSYPRPQRGEHNGKAPVHHSQPRNEMKEQRKPVNRFKPRADHKNTESSSSEWSLFTSSDEASFTTESTRDSFSTIDYTDVCHVVDSSSPFAIFNNVYHNVEPSPHNTVACRMFSGTKPETRYFVEQETNHNNTVVLDATPSLYPIPAPYPPHDYYDQSMYVNYETNPEFNNGQDQDRTYSYW | Cysteine^447 is essential for this DUB activity | Cysteine^447 is essential for this DUB activity | – |
